Assay results taken from the supplement of paper PMC9170038.

Tested on: MS2 coat protein
Experiment: apparent KD of MS2 coat protein; higher = weaker reporter binding
Settings: Eterna round: R107
In short: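 Apparent KD stands for the median, per design, of fits to normalised cluster binding curves. The curves came from titrating on-chip-transcribed RNA switches on Illumina sequencing clusters with SNAP-549-labelled MS2 coat protein, twofold from 0.7 or 1.5 nM to 3 µM. Buffer was 100 mM Tris-HCl pH 7.5, 80 mM KCl, 4 mM MgCl2, without or with constant ligand.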

[1] = input ligand: theophylline 20 uM
[2] = input ligand: theophylline 2 mM
[3] = input ligand: tryptophan 2.4 mM

| Sequence | apparent KD of MS2 coat protein (input ligand: arginine 13.2 mM) [nM] | apparent KD of MS2 coat protein [1] [nM] | apparent KD of MS2 coat protein [2] [nM] | apparent KD of MS2 coat protein (input ligand: none) [nM] | apparent KD of MS2 coat protein [3] [nM] |
| --- | --- | --- | --- | --- | --- |
| UAUAAACAGCCUGGUUACUCGUCGCGCUUGCGAGGACCGGUACGGCCGCCACUCGACCCAUCACAUGAGGAUCACCCAUGUCCCA [theeternabot_exclusion_MS2_Trp_A_25] | 29.4 | 45 | 38.6 |  |  |
| CCCAAUUAGAUCUUUGGAAUUUUACUCGAAGGAGCGUCAUAGUAGGCAGGUAGGUCGCGAGACAUGAGGAUCACCCAUGUAGAGA [btbmullin] | 33 | 50.8 | 38.5 | 40.9 | 33 |
| CAUUAUGUAACUGAUACCAGUGUACUGACAUGAGGAUCACCCAUGUUGGGUUUUGUUGUACACCCUUGGCAGCAGAAUCAUAAUG [AstrosExyTheB#2] | 43.3 | 70.3 |  |  | 57.8 |
| GCAUCCUAGUCGGCCGCCACUGCAAUUGUAAUACUGCUACAUGAACAUGAGGAUCACCCAUGUAGCAGGACCGGGACUAGGAUGC [(Trp1)-(TM)''-(TM)'-(Ms2)-(Trp2)_Design9] | 80.4 | 185 | 222 |  |  |
| ACACAUGAGGAUCACCCAUGUUCAAUAGAUACCAGUGAUACGGUGCACCCUUGGCAGCUGUUGCUGAGUGAUGGUUCCCUCGGUA [#23 SameState-TheophyllineA] | 28.1 | 53.9 |  |  | 41 |
| CAGACUAGGGCGGCCGCCACUGUGGCUACGGUACAUGAGGAUCACCCAUGUUUGUGGUUGAUCUACAGGACCGGGCCCUGGCACG [Orbera] | 9.05 | 588 | 200 | 305 | 273 |
| AAAAUAAACUCGGCCGCCACUCAACGGACCCUUUGGACAUGAGGAUCACCCAUGUAUUUUGGAAAGAGGACCGGGAGAAAUAAAA [Exclusion - Trytophan B] | 8.32 | 17.8 | 11.7 | 8.35 | 12.2 |
| GGCUAGGCUAGCGAUACCAGCAACCAACAUGAUCUGAGGAUCACCCAGGUAGUUGGACGUUGCCCUUGGCAGCGCUAGCCUAGCC [SSThB NP+V+V2 #12 Diff Apt, Same Structure] | 15.4 | 16 | 12.2 | 14.3 | 15.5 |
| GGAUAGGACACGGCCGCCACUAGCUAGGAUACUAGCAACAUUUCCUCACUUGAGGAUCACCCAAGUAGGACCGGGUGUCCUAUCG | 95.2 | 250 | 160 | 162 | 182 |
| AUAAGGUAUCUGCUUCAUGGGUGAGCAGAUACCAGCUAGGAAACUAGCCCUUGGCAGCUGCAACAUGAGGAUCACCCAUGUAAUA [(T)'-(M)'-(T1)-(T2)-(M1)-(M2)_Design2] | 60.7 | 149 | 964 | 1060 | 142 |
| GACGAUAUGAUACGUCAGCAAUCCUCGAAACGAGGACCGGUACGGCCGCCACUCGAGUGAUACACAUGAGGAUCACCCAUGUACC [Tryp A Ex t3] | 30.9 | 49.6 | 49.4 |  |  |
| UGUUUGGUGCGCGAGUGUUGGAUAAUUGAUACCAGUGAAGAAGAGCGCCCUUGGCAGCGAAUCCUAACAUGAGGAUCACCCAUGU [5.U] | 41.5 | 84.8 | 51.7 | 39.7 | 39 |
| UGACGAUACCUGGAUACCAGCGACAUGAGGAUCACCCAUGUAUGAGGAUCAGCCAUGUUAUGCCCUUGGCAGCCACGAAAGUCUU [UUUMULLIN] | 37.5 | 115 |  |  | 40.3 |
| UAUAUAUAUCACGAACUGUGGUGUAUGUCUCGAGGACCGGUACGGCCGCCACUCGCGCGGCCUCACAUGAGGAUCACCCAUGUUG [XTryp A #6] | 27.9 | 73.7 | 78.5 |  |  |
| UUUACAUGAGGAUCACCCAUGUGCCAUGAUACCAGACAUGAAAAUGUCCCUUGGCAGCAUGAGUGAUGCAUCCGAAAGGAUGUUU [Ivanovice] | 97.2 | 197 |  |  | 52.4 |
| AAUUUUAACGGAAGGAGCGUCACGUAAUUCAUACAUGAGGAUCACCCAUGUUAGUUGUAGAGACAGGUAGGUCGCCGUUAUUUGA [JR_AAArginiB_Sub025] | 15.7 | 20.9 | 17.1 | 15.7 | 17 |
